In PMC7993378, “Inhibition of bacterial and human zinc-metalloproteases by bisphosphonate- and catechol-containing compounds” (Journal of Enzyme Inhibition and Medicinal Chemistry, 2021) one finds Km data, which are given here for two substances.

One may read the Km as the substrate concentration at which the rate is half of its maximum.

The subject of data set [1] is COc1ccc2c(CC(=O)N[C@@H](CCCNC(=N)N)C(=O)N3CCC[C@H]3C(=O)N3CCC[C@H]3C(=O)NCC(=O)N[C@@H](Cc3ccccc3)C(=O)N[C@@H](CO)C(=O)N[C@@H](C)C(=O)N[C@@H](Cc3ccccc3)C(=O)N[C@@H](CCCCNc3ccc([N+](=O)[O-])cc3[N+](=O)[O-])C(=O)O)cc(=O)oc2c1. Briefly: purified protein, by the assay type. The conditions noted are these: other: 1% DMSO; regarded as uncertain, highest substrate concentration 10 µM; pH 7.5.
Protocol: Km values were determined for McaPLGL(Dpa)AR-NH2 with APMA-activated recombinant MMP-9 (rMMP-9(A)), trypsin-activated MMP-9 from THP-1 cells (MMP-9(T)) and MMP-14, and for Mca[sequence](Dnp)-OH with ALN, PLN and TLN. Substrate concentrations used were 1–10 µM in a total volume of 100 µL of 0.1 M Hepes pH 7.5 containing 10 mM CaCl2, 0.005% Brij-35 and 1.0% DMSO. […] Initial rate experiments were performed as described above for the determination of enzyme activity of MMP-9 during activation and the same excitation and emission wavelengths were used for both substrates.

The test system is the same in data set [2]. The data set can be described thus: Km determination of McaRPPGFSAFK(Dnp)-OH with TLN. Type of data set: biochemical, Bacillus thermoproteolyticus. Particulars: other: 2% DMSO; pH 7.5. The protocol: The estimated Km values for ALN and PLN must be regarded as uncertain since the highest substrate concentration used was 10 µM due to quenching. The obtained Km values are very similar to those previously obtained for theses enzymes without DMSO[57] or with a DMSO concentration of 5%[58]. Previously it was reported that TLN is inactivated in most organic cosolvents, but can tolerate up to 10% DMSO to enhance substrate solubility. For TLN, the Km value was also determined with a DMSO concentration of 2%.
Km values were determined for McaPLGL(Dpa)AR-NH2 with APMA-activated recombinant MMP-9 (rMMP-9(A)), trypsin-activated MMP-9 from THP-1 cells (MMP-9(T)) and MMP-14, and for McaRPPGFSAFK(Dnp)-OH with ALN, PLN and TLN. Substrate concentrations used were 1–10 µM in a total volume of 100 µL of 0.1 M Hepes pH 7.5 containing 10 mM CaCl2, 0.005% Brij-35 and 1.0% DMSO. […] Initial rate experiments were performed as described above for the determination of enzyme activity of MMP-9 during activation and the same excitation and emission wavelengths were used for both substrates.

As to ALN (Staphylococcus aureus), the Km in data set [1] was found to be 76 ± 7 µM.

As to TLN (Bacillus thermoproteolyticus), in data set [2], the Km came to 7 ± 1 µM.
